Assay [1] has as its target FcRn-p3 (human FcRn fused to the amino terminal part of the bacteriophage p3 protein and the CVDE protein) (human) (UniProt P55899). In words: ELISA; FcRn-p3 (0.1 μg/well) coated on Maxisorp plates in P6 (pH 6.0); IgG in HEK293-F supernatants aggregated with HRP F(ab')2 goat anti-human F(ab')2, diluted in P6 to 0.0375 μg/ml, 1 h at 30°C; results as ratio variant/WT. Background: An ELISA detects its analyte on a solid surface through an enzyme-linked reagent.

Assay [2] has as its target human FcγRIIA-R131 (human). In words: ELISA; C1q (0.5 μg/well) or FcγRIIIA-V158 (0.1 μg/well) coated on Maxisorp plates, FcγRIIA-R131 (0.1 μg/well) or FcγRIIB (0.4 μg/well) on nickel chelate plates; IgG in HEK293-F supernatants aggregated with HRP F(ab')2 goat anti-human F(ab')2, 0.5 μg/ml (0.25 μg/ml for FcγRIIIA-V158) in PBS, 1 h at 30°C; results as ratio variant/WT.
Assay [3] concerns the target human FcγRIIIA-V158 (human). The description is as above.
The target of another assay is human complement C1q. The description is as above.
A further assay addresses human FcγRIIB (human) (UniProt P31994). The assay is described as above.
Assay [4] deals with FcRn-p3 (human FcRn fused to the amino terminal part of the bacteriophage p3 protein and the CVDE protein) (human) (UniProt P55899). In words: ELISA; phage-ELISA at pH 6.0: FcRn-p3 coated on Maxisorp plates (0.25 μg/well); phage-Fc supernatants diluted 1/2 and 1/4 in P6 (100 mM sodium phosphate, 50 mM NaCl, pH 6.0) with 5% skimmed milk and 0.1% Tween-20; 2 h at 37°C; bound phages detected with HRP anti-M13 antibody; results as ratios of signals.

In assay [5] the target is soluble human FcRn (human) (UniProt P55899). Nature of the assay: SPR; BIAcore X100, CM5 chip, recombinant human FcRn immobilised; IgG 1-200 nM flowed at 10 μl/min, 25°C, 50 mM sodium phosphate pH 6.0, 150 mM NaCl, 0.02% NaN3, 0.01% Tween-20; steady-state affinity model. On the technique in general: SPR reads the build-up and loss of mass on a sensor chip optically.

Sequence of UniProt P31994 (P31994 43-217): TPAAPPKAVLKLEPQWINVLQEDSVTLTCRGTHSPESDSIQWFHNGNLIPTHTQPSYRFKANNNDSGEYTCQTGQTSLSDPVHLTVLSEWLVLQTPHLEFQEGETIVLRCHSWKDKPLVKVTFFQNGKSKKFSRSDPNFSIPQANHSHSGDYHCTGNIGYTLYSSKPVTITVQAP

“anti-CD20 IgG1 variant IgG-LS (produced in HEK293-F cells) (antibody)”: the ELISA ratio variant/WT was 4.46 in assay [1]; 2.52 in assay [2]; 1.3 in assay [3]; 2.39 in the assay with human complement C1q; 0.97 with human FcγRIIB (human).
Consider “Fc variant Fc-YTE (phage-displayed Fc 226-447) (domain or fragment)”, for which the phage-ELISA ratio/Fc-WT in assay [4] was 3.5.
The Kd is the free concentration of one partner at which half of the binding sites on the other are occupied at equilibrium, for simple one-to-one binding. “anti-CD20 IgG1 IgG-WT (produced in YB2/0 cells) (antibody)”: in assay [5], the Kd stood at 101 nM.
With “Fc variant Fc-QL (phage-displayed Fc 226-447) (domain or fragment)”, the phage-ELISA ratio/Fc-WT in assay [4] amounted to 3.2.
For the substance “anti-CD20 IgG1 variant IgG-YTE (produced in HEK293-F cells) (antibody)”, the ELISA ratio variant/WT in assay [1] stood at 2.06; in assay [2], 0.27; in assay [3] it was 0.27; with human complement C1q it was 0.64; with human FcγRIIB (human), 0.42.
As to “anti-CD20 IgG1 variant IgG-QL (produced in HEK293-F cells) (antibody)”, the ELISA ratio variant/WT in assay [1] turned out to be 2.39; in assay [2] it was 0.99; in assay [3], 0.59; in the assay with human complement C1q, 2.47; with human FcγRIIB (human), 0.95.

(Values after paper PMC4316771.)
